Legend:
[1] = target: T1, CD39 mutant 5 (Q96A, N99A, E143A, R147E) (human, UniProt P49961 1-510); assay: flow cytometry on transfected HEK293T cells
T1 construct: Transfected in HEK293T cells
T1 chain: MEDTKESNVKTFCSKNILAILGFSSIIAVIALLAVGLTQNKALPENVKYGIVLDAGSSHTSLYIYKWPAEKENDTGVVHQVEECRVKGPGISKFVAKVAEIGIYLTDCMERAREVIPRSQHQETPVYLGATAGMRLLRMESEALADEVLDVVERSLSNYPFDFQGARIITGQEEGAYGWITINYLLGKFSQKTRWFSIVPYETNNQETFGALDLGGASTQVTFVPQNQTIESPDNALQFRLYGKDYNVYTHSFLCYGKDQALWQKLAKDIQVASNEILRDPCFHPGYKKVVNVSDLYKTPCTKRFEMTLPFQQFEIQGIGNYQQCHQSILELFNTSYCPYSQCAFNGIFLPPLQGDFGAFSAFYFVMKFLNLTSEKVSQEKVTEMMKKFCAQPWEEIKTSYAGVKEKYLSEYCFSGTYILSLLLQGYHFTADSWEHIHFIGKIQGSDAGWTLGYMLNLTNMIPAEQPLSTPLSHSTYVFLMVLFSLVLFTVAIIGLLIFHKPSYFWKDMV

[2] = target: T2, CD39 mutant 4 (D150A, E153S, R154A, S157K, N158A, L278F) (human, UniProt P49961 1-510); assay: flow cytometry, HEK293T cells transfected with mutant 4
T2 construct: Transfected in HEK293T cells
T2 chain: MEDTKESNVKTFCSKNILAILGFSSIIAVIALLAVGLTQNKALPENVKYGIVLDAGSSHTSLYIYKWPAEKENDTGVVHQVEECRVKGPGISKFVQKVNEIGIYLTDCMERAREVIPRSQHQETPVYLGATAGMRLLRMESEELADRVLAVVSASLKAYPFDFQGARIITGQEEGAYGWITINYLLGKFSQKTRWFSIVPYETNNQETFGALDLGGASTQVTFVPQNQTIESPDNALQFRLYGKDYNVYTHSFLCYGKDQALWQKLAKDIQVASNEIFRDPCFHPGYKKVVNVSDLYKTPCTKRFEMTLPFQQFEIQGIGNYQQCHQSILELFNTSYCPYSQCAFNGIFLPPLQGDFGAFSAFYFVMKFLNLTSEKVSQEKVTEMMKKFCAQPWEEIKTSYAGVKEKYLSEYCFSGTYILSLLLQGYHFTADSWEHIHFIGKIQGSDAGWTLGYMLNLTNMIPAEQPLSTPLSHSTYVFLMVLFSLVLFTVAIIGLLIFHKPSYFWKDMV

[3] = target: T3, CD39 mutant 2B (E110A, R113T, E114A) (human, UniProt P49961 1-510); assay: flow cytometry, HEK293T cells transfected with mutant 2B
T3 construct: Transfected in HEK293T cells
T3 chain: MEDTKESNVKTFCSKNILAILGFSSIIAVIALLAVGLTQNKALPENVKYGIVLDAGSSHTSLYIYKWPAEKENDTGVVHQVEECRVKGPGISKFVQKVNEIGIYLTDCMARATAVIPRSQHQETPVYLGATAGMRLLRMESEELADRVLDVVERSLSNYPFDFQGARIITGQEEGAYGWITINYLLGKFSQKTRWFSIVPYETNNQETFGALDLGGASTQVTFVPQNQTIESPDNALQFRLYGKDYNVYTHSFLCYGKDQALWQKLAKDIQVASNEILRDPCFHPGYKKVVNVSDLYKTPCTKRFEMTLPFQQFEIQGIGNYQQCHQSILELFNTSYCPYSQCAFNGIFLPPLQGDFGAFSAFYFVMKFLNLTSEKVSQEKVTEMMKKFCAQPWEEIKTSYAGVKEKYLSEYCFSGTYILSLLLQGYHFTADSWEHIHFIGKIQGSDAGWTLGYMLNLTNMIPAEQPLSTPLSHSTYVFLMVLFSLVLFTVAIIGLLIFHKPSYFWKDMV

[4] = target: T4, Human CD39 (vascular CD39, NTPDase1, ENTPD1) expressed at the cell surface (human, UniProt P49961 1-510); assay: flow cytometry on HEK cells expressing human CD39, antibody 99 nM to 0.045 nM (FIG. 1 legend says ELISA)
T4 construct: also called huCD39; HEK-huCD39
T4 sequence: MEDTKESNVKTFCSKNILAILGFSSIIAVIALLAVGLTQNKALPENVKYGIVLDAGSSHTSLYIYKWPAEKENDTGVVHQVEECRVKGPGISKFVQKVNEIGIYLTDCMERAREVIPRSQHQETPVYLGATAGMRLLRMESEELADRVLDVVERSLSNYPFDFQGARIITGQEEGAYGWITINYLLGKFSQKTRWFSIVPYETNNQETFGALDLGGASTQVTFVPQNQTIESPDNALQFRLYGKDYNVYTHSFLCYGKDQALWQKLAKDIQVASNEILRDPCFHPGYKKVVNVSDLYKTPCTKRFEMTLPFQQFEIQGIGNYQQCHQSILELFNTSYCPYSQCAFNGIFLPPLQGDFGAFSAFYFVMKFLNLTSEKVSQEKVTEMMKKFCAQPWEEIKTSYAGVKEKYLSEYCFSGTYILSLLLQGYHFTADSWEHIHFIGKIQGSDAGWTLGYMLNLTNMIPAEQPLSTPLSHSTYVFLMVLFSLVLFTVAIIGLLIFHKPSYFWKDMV
Description: Briefly, 1×10⁵ HEK-huCD39or cynoCD39 cells were incubated with various concentration of unlabeled anti-CD39 antibody or isotype control (IC) from 99 nM to 0.045 nM, for 30 minutes at 4° C. After washes, cells were incubated with Goat anti-mouse H+L labeled secondary antibody for 30 min at 4° C.

- binding result [2]: binds
- binding result [3]: binds
- EC50 [4]: 14.9 nM
B1: Antibody I-391, Fc silent recombinant chimeric human IgG1 with heavy chain N297Q mutation (antibody, V domains shown)
VH: QIQLVQSGPELKKPGETVKISCKASGYTFRNYGMNWVKQAPGKGLKWMGWINTYTGEPTYADDFKGRFAFSLATSASTAYLQISNLKNEDTATYFCARKAYYGSNYYFDYWGQGTTLTVSS
VL: DIVMTQSHKFMSTSVGDRVSITCKASQDVSTAVAWYQQKPGQSPKLLIYSASYRYTGVPDRFTGSGSGTDFTFTISTVQAEDLAVYYCQQHYTTPPYTFGGGTKLEIKR
- binding result [1]: no binding (tested: dose range 10 to 0.0006 µg/ml)
